Reference: US20230416362A1 (INDUSTRIAL TECHNOLOGY RESEARCH INSTITUTE, published 2023)

How the values were obtained:
[1] = molecular target: T1, human TIGIT expressed on cells (TIGIT/Jurkat cells; MJ[G11] cells; PBMC T cells) (human, UniProt Q495A1 22-244); assay: flow cytometry on TIGIT/Jurkat cells
T1 construct: The cell line is named under assay; also called human TIGIT-expressing Jurkat cells
T1 sequence: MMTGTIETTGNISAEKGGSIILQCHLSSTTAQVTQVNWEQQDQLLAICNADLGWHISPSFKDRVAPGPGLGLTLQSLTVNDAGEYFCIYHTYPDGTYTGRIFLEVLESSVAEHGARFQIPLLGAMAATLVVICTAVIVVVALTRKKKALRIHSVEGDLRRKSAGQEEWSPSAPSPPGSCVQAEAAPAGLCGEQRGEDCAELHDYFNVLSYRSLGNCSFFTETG
Experimental: Sequential dilutions of Protein A column-purified 7D4, 2C9, and 3A9 antibodies were separately incubated with 5×10⁵ of human TIGIT-expressing Jurkat cells (TIGIT/Jurkat) in 50 μl of FACS buffer (0.2% BSA in Dulbecco's phosphate-buffered saline (DPBS) containing 0.09% sodium azide) on ice for 1 hour. After washing, the cells were stained with anti-mouse IgG conjugated with PE dyes and antibody binding strength was analyzed by flow cytometry.

[2] = molecular target: T2, TIGIT-biotin (TIGIT:CD155 Homogeneous Assay Kit, #72029) (human, UniProt Q495A1 22-141, limits assumed, biotin (site not stated)); assay: AlphaLISA competition: TIGIT-biotin with antibody, then histidine-tagged CD155 as competitor
T2 construct: Kit reagent; also called human TIGIT
T2 chain: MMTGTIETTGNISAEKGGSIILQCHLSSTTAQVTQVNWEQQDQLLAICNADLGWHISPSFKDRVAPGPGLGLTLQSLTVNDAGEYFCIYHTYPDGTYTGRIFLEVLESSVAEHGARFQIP
Experimental: To evaluate inhibition of binding of TIGIT to CD155 by anti-TIGIT antibodies, AlphaLISA assays were performed using a TIGIT:CD155 Homogeneous Assay Kit (PBS Biosciences, #72029). Aliquots (6 μl) of solution containing TIGIT-biotin (final concentration 0.2 ng/μl) and 4-fold serial dilution of the test antibodies (final volume 2 μl) were added into a 384-well plate. The plates were covered with a lid and incubated at room temperature for 30 min. Then, 2 μl of histidine-tagged CD155 were added (final concentration 0.05 ng/μl) into each well and incubated at room temperature for 60 min. Finally, aliquots (5 μl) of streptavidin-conjugated donor beads (final concentration 10 μg/ml) and 5 μl of anti-His tag acceptor beads (final concentration 20 μg/ml) were added and the plate was incubated at room temperature for 30 min in the dark. AlphaLISA signals were measured on an EnSpire Alpha 2390 (Perkin-Elmer Life Sciences). 15A6 (U.S. Pat. No. 10,189,902) and MBSA43 (Thermo Fisher Scientific, #16-9500-82) were used as reference antibodies.
These antibodies were selected for further functional studies.

[3] = molecular target: T3, human TIGIT IgV domain Y110A (human, UniProt Q495A1 22-141, limits assumed); assay: ELISA on TIGIT IgV point mutants
T3 construct: Made in Expi293F cells, purified on Strep-Tactin XT; Limits of the IgV domain not readable, whole entry named; also called Y110 single alanine substitution mutant
T3 chain: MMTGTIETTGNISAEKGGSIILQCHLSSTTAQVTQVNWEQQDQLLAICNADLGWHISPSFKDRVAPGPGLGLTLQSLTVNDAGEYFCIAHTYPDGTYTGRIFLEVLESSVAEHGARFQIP
Experimental: (§1) To further identify the amino acid residues of TIGIT that interact with the recombinant 7D4 mIgG2a antibody, single alanine substitution mutants were generated in the human TIGIT IgV domain by site-directed mutagenesis using standard molecular techniques. ELISA binding assays were then performed to assess 7D4 binding strength.
(§2) To identify the amino acid residues of TIGIT that interact with the humanized 7D4 variant, 1A11 (in human IgG1-DLE isotype), ELISA binding assays with the single alanine substitution mutants were performed to assess 1A11 binding strength. […] Similar to the parental mouse 7D4 antibody, Q56 and Y106 single alanine substitution mutants completely abolished the binding of 1A11.

[4] = molecular target: T4, human TIGIT IgV domain G74A (human, UniProt Q495A1 22-141, limits assumed); assay: ELISA on TIGIT IgV point mutants
T4 construct: Made in Expi293F cells, purified on Strep-Tactin XT; Limits of the IgV domain not readable, whole entry named; also called G74 single alanine substitution mutant
T4 chain: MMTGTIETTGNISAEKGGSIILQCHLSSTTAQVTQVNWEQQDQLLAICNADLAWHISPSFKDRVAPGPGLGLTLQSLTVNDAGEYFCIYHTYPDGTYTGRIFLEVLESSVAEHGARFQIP
Experimental: as §1, §2

[5] = molecular target: T5, human TIGIT IgV domain Q56A (human, UniProt Q495A1 22-141, limits assumed); assay: ELISA on TIGIT IgV point mutants
T5 construct: Made in Expi293F cells, purified on Strep-Tactin XT; Limits of the IgV domain not readable, whole entry named; also called Q56 single alanine substitution mutant
T5 chain: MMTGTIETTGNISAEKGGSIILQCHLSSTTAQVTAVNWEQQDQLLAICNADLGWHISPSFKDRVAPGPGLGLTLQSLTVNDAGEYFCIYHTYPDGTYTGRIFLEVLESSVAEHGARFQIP
Experimental: as §1, §2

[6] = molecular target: T6, human TIGIT IgV domain Y106A (human, UniProt Q495A1 22-141, limits assumed); assay: ELISA on TIGIT IgV point mutants
T6 construct: Made in Expi293F cells, purified on Strep-Tactin XT; Limits of the IgV domain not readable, whole entry named; also called Y106 single alanine substitution mutant
T6 chain: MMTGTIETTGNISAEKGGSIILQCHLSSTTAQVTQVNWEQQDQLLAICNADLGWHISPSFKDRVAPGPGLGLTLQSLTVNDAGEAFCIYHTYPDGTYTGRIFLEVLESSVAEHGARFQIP
Experimental: as §1, §2

[7] = molecular target: T7, human TIGIT IgV domain H111 single alanine substitution mutant (human, UniProt Q495A1 22-141, limits assumed); assay: ELISA on TIGIT IgV point mutants
T7 construct: Printed as "H111" in the list of mutants; the text calls it a single alanine substitution mutant; Limits of the IgV domain not readable, whole entry named; also called H111A
T7 chain: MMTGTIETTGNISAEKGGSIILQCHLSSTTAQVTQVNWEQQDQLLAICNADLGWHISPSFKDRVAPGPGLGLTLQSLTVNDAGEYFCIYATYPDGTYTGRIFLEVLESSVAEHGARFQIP
Experimental: as §1, §2

[8] = molecular target: T8, mTIGIT (ELISA of Table 7) (mouse, UniProt P86176 29-145, limits assumed); assay: mTIGIT/mCD155 competition ELISA; competitor mCD155
T8 construct: also called mouse TIGIT
T8 sequence (looked up): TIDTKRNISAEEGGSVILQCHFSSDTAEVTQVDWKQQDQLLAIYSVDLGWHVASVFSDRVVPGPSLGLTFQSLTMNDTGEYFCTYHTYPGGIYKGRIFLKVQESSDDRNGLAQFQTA

[9] = molecular target: T8, mTIGIT (ELISA of Table 7); assay: ELISA binding
[10] = molecular target: T9, hTIGIT (ELISA of Table 7) (human, UniProt Q495A1 22-141, limits assumed); assay: ELISA binding
T9 construct: whole entry named; also called human TIGIT
T9 chain: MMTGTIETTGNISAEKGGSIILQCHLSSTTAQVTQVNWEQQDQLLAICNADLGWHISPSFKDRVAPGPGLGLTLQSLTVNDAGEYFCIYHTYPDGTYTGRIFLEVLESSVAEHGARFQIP

B1: 2C9 (antibody, V domains shown)
VH: DIQLKQSGAELVRPGASVKLSCKASGYTFTDSYINWVKQRPGQGLEWIARFYPGSGNTYYNEKFKGKATLTAEKSSSTAYMQLSSLTSEDSAVYFCAREAWLLFYGMDYWGQGTTVTVSS
VL: DIVLTQSPAIMSASPGEKVTISCSANSSVSYMYWYQQKPGSSPKPWIYRTSNLASGVPARFSGSGSGTSYSLTISSMEAEDAATYYCQQYHSYPLTFGAGTKLELK
notes: Mouse monoclonal antibody from hybridoma clone 2C9, Protein A purified; also called anti-TIGIT monoclonal antibody 2C9
Kd [1]: 2 nM
IC50 [2]: 0.4 nM

B2: recombinant 7D4 mIgG2a antibody (antibody, V domains shown)
VH: QVQLKHSGAELVRPGTSVKMSCKASGYTFTNYWIGWAKQRPGHGLEWIGDIYPGSSFTNSNEKFKGKATLTADKSSSTAYMQFSSLTSEDSAIYYCAKLGRGYWYFDVWGTGTSVTVSA
VL: DIVLTQSPAIMSASLGEEITLTCSASSSVSYIHWYQQKSGTSPKLLIYTTSNLASGVPSRFSGSGSGTFYSLTISSVEAEDAADYYCHQWSRYPTFGGGTKLEIK
notes: Recombinant form with mouse IgG2a constant region (vector pFUSEss-CHIg-mG2a); also called recombinant 7D4 antibody (in mouse IgG2a isotype)
reduction in binding against the wild type [3]: > 50%
reduction in binding against the wild type [4]: 50%
binding result [5]: no binding
binding result [6]: no binding
reduction in binding against the wild type [7]: > 50%

B3: 3A9 (antibody, V domains shown)
VH: QVQLQQPGAELVRPGSSVKLSCKASGYTFTSYWMHWVKQRPIQGLEWIGNIDPSDSATHYNQKFKDKATLTVDKSSSTAYMHLSSLTSEDSAVYYCARTGIDYGSSYFDYWGQGTILTVSS
VL: DIVLTQSPASLAVSLGQRATISCRASQSVSTSSYSYIHWYQQKPGQPPKLLIKYASNLESGVPARFSGSGSGTDFTLNIHPVEEEDTATYYCQHNWEIPRTFGGGTKLEIK
notes: Mouse monoclonal antibody from hybridoma clone 3A9, Protein A purified; also called anti-TIGIT monoclonal antibody 3A9
Kd [1]: 1.86 nM
IC50 [2]: 0.55 nM

B4: 1G3 mIgG2a-DLE (antibody, V domains shown)
VH: DIQLVQSGGGLVKPGGSLRLSCAASGYTFTNYWIGWVRQTPGKGLEWVGDIYPGSSFTNSNEKFKGRFTISADKSKNTAYLQMNSLRAEDTAVYYCARDMVGYWYFDVWGQGTLVTVSS
VL: DIVLTQSPATLSASLGERATLSCSASSSVSYIHWYQQKPGQAPKLLIYTTSNLASGVPSRFSGSGSGTDFTLTISSLEAEDFATYYCHQWSRYPTFGGGTKLEIK
notes: Mouse IgG2a isotype with DLE (S239D/A330L/I332E) mutations at the Fc region
IC50 [8]: 61.7 nM
EC50 [9]: 3.6 nM
EC50 [10]: 9.4 nM

B5: 1A11 hIgG1-DLE (antibody, V domains shown)
VH: EVQLVQSGGGLVKPGGSLRLSCAASGYTFTNYWIGWVRQTPGKGLEWVGDIYPGSSFTNSNEKFKGRFTISADKSKNTAYLQMNSLRAEDTAVYYCARLGRGYWYFDVWGQGTLVTVSS
VL: DIVLTQSPATLSASLGERATLSCSASSSVSYIHWYQQKPGQAPKLLIYTTSNLASGVPSRFSGSGSGTDFTLTISSLEAEDFATYYCQLFRSGSAFGGGTKLEIKR
notes: Human IgG1 with DLE mutations at the Fc region, expressed in CHO-S cells; also called humanized 7D4 variant 1A11 (in human IgG1-DLE isotype)
reduction in binding against the wild type [3]: > 40%
reduction in binding against the wild type [4]: > 40%
binding result [5]: no binding
binding result [6]: no binding
reduction in binding against the wild type [7]: > 40%

B6: 3H2 mIgG2a-DLE (antibody, V domains shown)
VH: DIQLVQSGGGLVKPGGSLRLSCAASGYTFTNYWIGWVRQTPGKGLEWVGDIYPGSSFTNSNEKFKGRFTISADKSKNTAYLQMNSLRAEDTAVYYCARIRLGYWYFDVWGQGTLVTVSS
VL: DIVLTQSPATLSASLGERATLSCSASSSVSYIHWYQQKPGQAPKLLIYTTSNLASGVPSRFSGSGSGTDFTLTISSLEAEDFATYYCHQWSRYPTFGGGTKLEIK
notes: as for B4
IC50 [8]: 12.4 nM
EC50 [9]: 0.7 nM
EC50 [10]: 0.9 nM

B7: 2F1 mIgG2a-DLE (antibody, V domains shown)
VH: DIQLVQSGGGLVKPGGSLRLSCAASGYTFTNYWIGWVRQTPGKGLEWVGDIYPGSSFTNSNEKFKGRFTISADKSKNTAYLQMNSLRAEDTAVYYCARVIVGYWYFDVWGQGTLVTVSS
VL: DIVLTQSPATLSASLGERATLSCSASSSVSYIHWYQQKPGQAPKLLIYTTSNLASGVPSRFSGSGSGTDFTLTISSLEAEDFATYYCHQWSRYPTFGGGTKLEIK
notes: as for B4
IC50 [8]: 33.8 nM
EC50 [9]: 1.1 nM
EC50 [10]: 464 nM

B8: hz7D4 mIgG2a (antibody, V domains shown)
VH: EVQLVQSGGGLVKPGGSLRLSCAASGYTFTNYWIGWVRQTPGKGLEWVGDIYPGSSFTNSNEKFKGRFTISADKSKNTAYLQMNSLRAEDTAVYYCARLGRGYWYFDVWGQGTLVTVSS
VL: DIVLTQSPATLSASLGERATLSCSASSSVSYIHWYQQKPGQAPKLLIYTTSNLASGVPSRFSGSGSGTDFTLTISSLEAEDFATYYCHQWSRYPTFGGGTKLEIK
EC50 [9]: 217 nM
EC50 [10]: 0.3 nM
